In PMC11245854:

Legend:
[1] = target: human C1, P02745;P02746;P02747; test: HS-AFM; details: CL domain anchored onto a Ni2+-coated mica surface using the C-terminal hexahistidine tag; count in 10 different scanning areas; parent: est. 150; read off a plot
[2] = target: human C1q, P02745;P02746;P02747; test: HS-AFM; details: CL domain anchored onto a Ni2+-coated mica surface using the C-terminal hexahistidine tag; count in 10 different scanning areas; parent: est. 88; read off a plot

response [1] | response [2] | Substance
160 molecules | 83 molecules | human Cκ domain (from UniProt P01834) K206A
55 molecules | 19 molecules | human Cκ domain (from UniProt P01834) E194A
